Changes are numbered by the printed parent chain.
B1: unnamed (protein)
chain 1: EVQLLESGGGLVQPGGSLRLSCAASGFTFSQYGMDWVRQAPGKGLEWVSGIGPSGGSTVYADSVKGRFTISRDNSKNTLYLQMNSLRAEDTAVYYCTRDGSAYYYAFDYWGQGTTVTVSS
chain 2: DIQMTQSPSSLSASVGDRVTITCQASQDISNYLNWYQQKPGKAPKLLIYDASNLETGVPSRFSGSGSGTDFTFTISSLQPEDIATYYCQQADSFPVTFGGGTKVEIK
B2: unnamed (protein)
chain 1: B1 chain 1 with Q31S, G33A, G52S, P53Y, S54D, T97A, D99G, S101P, Y109V
chain 2: B1 chain 2
B3: unnamed (protein)
chain 1: B1 chain 1 with Q31S, G33A, G52S, P53G, S54D, D99G, S101P, A106G, Y109V
chain 2: B1 chain 2
B4: unnamed (protein)
chain 1: B1 chain 1 with Q31S, G33A, G52S, P53S, S54D, S101P, A102W, Y109V
chain 2: B1 chain 2
B5: unnamed (protein)
chain 1: B1 chain 1 with Q31S, G33A, G52S, P53S, S54D, T97A, D99G, S101P, A102S, Y109V
chain 2: B1 chain 2
B6: unnamed (protein)
chain 1: B1 chain 1 with Q31S, G33A, G52S, P53S, S54D, S101P, A102Y, Y109V
chain 2: B1 chain 2
B7: unnamed (protein)
chain 1: B1 chain 1 with Q31S, G33A, G52S, P53S, S54D, D99G, S101P, A102Y, Y109V
chain 2: B1 chain 2
B8: unnamed (protein)
chain 1: B1 chain 1 with Q31S, G33A, G52S, P53A, S54D, S101P, A106G, Y109V
chain 2: B1 chain 2
B9: unnamed (protein)
chain 1: B1 chain 1 with Q31S, G33A, G52S, P53G, S54D, D99G, S101P
chain 2: B1 chain 2
B10: unnamed (protein)
chain 1: B1 chain 1 with Q31S, G33A, G52S, P53A, S54D, D99G, S101P
chain 2: B1 chain 2

The binders below were run against FXI (assay: Kd (SPR)).

Row | Kd [nM] | Binder
1 | 248 | B1
2 | 702 | B2
3 | 546 | B3
4 | 692 | B4
5 | 505 | B5
6 | 693 | B6
7 | 375 | B7
8 | 485 | B8
9 | 857 | B9
10 | 707 | B10

Source: the FLAb antibody collection (doi:10.1101/2023.12.08.570889)
